Where two headings read alike, the source gives them in different places.
B1: 23-A11 (antibody, V domains shown)
VH: QVQLVESGGGVVQPGRSLRLSCAASGFTFSSYGMHWVRQAPGKGLEWVAVISYDGSNKYYADSVKGRFTISRDNSKNTLYLQMNSLRAEDTAVYYCAKEGELRGAFDIWGQGTMVTVSS
VL: SYVLTQPPSVSVAPGKTARITCGGDNIESKYVHWYQQKPGQAPVLVIYYDTDRPSGIPERFSGANSGNSATLTISRVEAGDEADYYCQVWDRTSGHFVFGPGTKVTVL
B2: 21-H1 (antibody, V domains shown)
VH: QVQLVESGGGVVQPGRSLRLSCAASGFTFSSYGMHWVRQAPGKGLEWVAVISYDGSNKYYADSVKGRFTISRDNSKNTLYLQMNSLRAEDTAVYYCAKEGELRGAFDIWGQGTTVTVSS
VL: DIVMTQSPLSLPVTPGEPASISCTSSQSLLHSIGYNFVDWYLQKPGQSPQLLIYSASNRASGVPDRFSGSGSGTDFTLKISRVEAEDVGVYYCMQALQRTLYTFGQGTKVESK
B3: 22-F7 (antibody, V domains shown)
VH: QVQLVESGGGVVQPGRSLRLSCAASGFSFTNYGMHWVRQAPGKGLEWVAVISYDGSIKYYEDSLKGRFTVSRDNSKKTLYLQMNSLRAEDTAVYYCTRERGTGIDYWGLGTLVTVSS
VL: QSALTQPASVSGYPGQSITLSCTGTKSDIGAYNYVSWYQQHPGKAPKLMVYDVSNRPSGLSNRFSGSKSDNTASLTISGLQAEDEAHYYCSSYTTSGTVVFGGGTKVTVL
notes: also called bin C
B4: 22-E8 (antibody, V domains shown)
VH: QVQLVQSGAEVKKPGSSVKVSCKASGGTFSSYAISWVRQAPGQGLEWMGGIIPIFGTTNYAQKFQGRVTITADESTSTAYMELSSLRSEDTAVYYCARDHGYYYGMDVWGQGTTVTVSS
VL: QSVLTQPSSVSAAPRQRVTLSCSGGDSNIGQNGVNWYLHVPGKAPRLVVYYDYLVSAGMSARFSGSRSGTSASLAISGLQSEDEGVYYCASWDDSLSAWVFGGGTKLTVL
B5: 11-H1 (antibody, V domains shown)
VH: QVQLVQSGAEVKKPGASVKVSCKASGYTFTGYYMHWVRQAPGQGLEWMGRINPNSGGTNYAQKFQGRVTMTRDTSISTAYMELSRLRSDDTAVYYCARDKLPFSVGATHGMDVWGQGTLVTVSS
VL: QSVLTQPPSVSEAPRQRVTISCSGSSSNIGNNAVNWYQQLPGQAPRLLIYYDNLLPSGVSDRFSASTSGTSASLAISDLRSEDEADYYCASWDDRLDSPVFGGGTKLTVL
B6: 8-A2 (antibody, V domains shown)
VH: QVQLVQSGAEVKKPGASVKVSCKASGYTFTGYYLHWVRQAPGQGLEWMGRINPNSGGTNYAQKFQGRVTMTRDTSISTAYMELSRLTSDDTAVYYCLAVAGTGGDAFDIWGQGTTVTVSS
VL: DIQMTQSPSTLSASVGDRVTITCRASQSISSWLAWYQQKPGKAPKLLIYAASSLESGVPSRFSGSGSGTDFTLTISSLQPEDFATYYCQQGHSFPLTFGGGTKVDIK
B7: 27-A11 (antibody, V domains shown)
VH: QVQLVQSGAEVKKPGASVKVSCKASGYTFTSYYMHWVRQAPGQGLEWMGIIDPSGGSTSYAQKFQGRVTLTRDTSTSTVYMELSSLRSEDTAVYYCARSRDGYIDDAFDIWGQGTLVTVSS
VL: QSVLTQPPSVSAAPGQKVTISCSGSSSNIGNNYVSWYQQLPGTAPKLLIYDNNKRPSGIPDRFSGSKSGTSATLGITGLQTGDEADYYCGTWDSSLSAGVFGGGTKLTVL
B8: 5-B6 (antibody, V domains shown)
VH: QVQLVQSGAEVKKPGSSVKVSCKASGGTFSSYAISWVRQAPGQGLEWVGGIIPMFNSASYAQKFQGKVTITADKATNTAYMELSSLRSEDTAVYYCARESSGYYYVSNWFDPWGQGTLVTVSS
VL: QSVLTQPSSVSGAPGQRVTISCTGSSSNIGAGYDVHWYQQIPGTAPRLLIYANSGRASGVPDRFSGSKSGTSASLAITGLQAEDEADYYCQSYDSSLSGVVFGGGTKLTVL
B9: 21-F2 (antibody, V domains shown)
VH: QVQLVQSGAEVKKPGASVTVSCKTSGYIFTNYDINWVRQAPGQGLEWVGWVNPNSGKVGYAQKFQGRVIMTRSDSESTAYMELTNLTSDDTAVYYCARGHTDFWGQGTLVTVSS
VL: QSVLTQPPSVSEAPRQRVTISCSGSSSNIGNNAVNWYQQLPGRAPKLLIYYDDLLPSGVSDRFSGSKSGTSASLAISGLQSEDEADYYCAAWDDSLNGVVFGGGTQLTVL
B10: 21-F2 optimized (antibody, V domains shown)
VH: QVQLVQSGAEVKKPGASVTVSCKTSGYIFTNYDINWVRQAPGQGLEWVGWVNPNSGKVGYAQKFQGRVIMTRSDSESTAYMELTQLTSDDTAVYYCARGHTDFWGQGTLVTVSS
VL: QSVLTQPPSVSEAPRQRVTISCSGSSSNIGNNAVNWYQQLPGRAPKLLIYYDDLLPSGVSDRFSGSKSGTSASLAISGLQSEDEADYYCAAWDDSLNGVVFGGGTQLTVL
B11: 23-H7 (antibody, V domains shown)
VH: QVQLVQSGAEVKLPGASMKVSCKASGYTFSTYYMHWVRQAPGQGPEWMGVIDPSGGTTSYAQKFHDRIAMTRDTSTSTAYLELSSLRSEDMAVYYCARGGFADAVDYWGQGTLVTVSS
VL: NFMLTQPHSVSGSPGKTVTISCTRNSGSIAGNYVQWYQQRPGSAPTTVIYEDNQRPSGVPDRFSGSIDSSSNSASLTISGLKTEDEADYYCQSYDASHLHVIFGGGTKVTVL
notes: also called bin 2
B12: 23-H7 Fab (Fab, V domains shown)
VH: QVQLVQSGAEVKLPGASMKVSCKASGYTFSTYYMHWVRQAPGQGPEWMGVIDPSGGTTSYAQKFHDRIAMTRDTSTSTAYLELSSLRSEDMAVYYCARGGFADAVDYWGQGTLVTVSS
VL: NFMLTQPHSVSGSPGKTVTISCTRNSGSIAGNYVQWYQQRPGSAPTTVIYEDNQRPSGVPDRFSGSIDSSSNSASLTISGLKTEDEADYYCQSYDASHLHVIFGGGTKVTVL
B13: 22-D9 (antibody, V domains shown)
VH: QVQLVQSGAEVKKPGSSVNVSCKTSGGTFNTYSINWVRQAPGQGLEWMGEIIPIFDKPNYAQKFQGRVTITADESTSTAYMELTSLRSDDTAVYYCARGTGYYYGMDVWGQGTTVTVSS
VL: QSVLTQPPSVSGAPRQTVTISCFGSRSNIGNYPVNWYHQVPGKAPKVVVYYDDLLPSGISDRFSGYKSGTSASLTISGLRSEDEADYYCATWDDSLNVWVFGGGTKLTVL
notes: also called bin 4
B14: 22-D9 Fab (Fab, V domains shown)
VH: QVQLVQSGAEVKKPGSSVNVSCKTSGGTFNTYSINWVRQAPGQGLEWMGEIIPIFDKPNYAQKFQGRVTITADESTSTAYMELTSLRSDDTAVYYCARGTGYYYGMDVWGQGTTVTVSS
VL: QSVLTQPPSVSGAPRQTVTISCFGSRSNIGNYPVNWYHQVPGKAPKVVVYYDDLLPSGISDRFSGYKSGTSASLTISGLRSEDEADYYCATWDDSLNVWVFGGGTKLTVL
B15: 2-A6 (antibody, V domains shown)
VH: QVTLRESGPALVKPTQTLTLTCTFSGFSLNTRGMSVSWIRQPPGKALEWLALIDWEDDKFYRTSLMTRLTISKDIFKNQVVLTMTNVDPVDTGTYYCARTYSVGVKYFGMDVWGQGTTVTVSS
VL: SSELTQDPAVSVALGQTVRITCQGDSLRNYYASWYRQEPGQAPILLIYGGNYRPSGIPDRFSGSSSGNTASLTITGAQAEDEADYYCNSRDSSGNHVVFGGGTKLTVL
notes: also called bin S2
B16: 24-B8 (antibody, V domains shown)
VH: QVQLVQSGAEVKKPGSSVKVSCKASGGTFSNYAISWVRQAPGQGLEWMGGIIPILDTTNYAQKFQGRVTITADESTSTAYMELNSLRSEDTAVYYCVREEGFDYWGQGTLVTVSS
VL: QSVLTQPSSLSASPGASASLTCTLRSGINVGAYNIYWYQQKPGSPPQFVLRYNSDSDNQQGSGVPSRFSGSKDASANAGILLISGLQSEDEAEYYCMIWRSSAWVFGGGTKLTVL

What was measured:
[1] = molecular target: SARS-CoV-2 Spike protein on VSV pseudotyped virus particles (Wuhan-1 isolate Spike sequence) (SARS-CoV-2, UniProt P0DTC2 13-1273); assay: cell-based or functional assay
[2] = molecular target: SARS-CoV-2 Spike on SARS-CoV2-S CHO-K1 cells (wild-type, Wuhan-1) (SARS-CoV-2, UniProt P0DTC2 13-1273); assay: flow cytometry on SARS-CoV2-S CHO-K1 cells, anti-human IgG-PE detection
Wuhan-1 = assay: flow cytometry on Spike-transfected HEK293F cells, heat map
SARS-CoV-2 Spike RBD-hFc [3] = molecular target: T1, SARS-CoV-2 Spike RBD-hFc (SARS-CoV-2, UniProt P0DTC2 319-541)
SARS-CoV-2 Spike S1-hFc [4] = molecular target: T2, SARS-CoV-2 Spike S1-hFc (SARS-CoV-2, UniProt P0DTC2 16-685)
SARS-CoV-2 Spike S1-hFc [5] = molecular target: T2, SARS-CoV-2 Spike S1-hFc; assay: Octet BLI; Fab as analyte over S1-hFc on AHC sensors; 1:1 kinetic fit
SARS-CoV-2 Spike RBD-hFc [6] = molecular target: T1, SARS-CoV-2 Spike RBD-hFc; assay: Octet BLI; Fab as analyte over RBD-hFc on AHC sensors; 1:1 kinetic fit
SARS-CoV-2 Spike RBD-hFc [7] = molecular target: T1, SARS-CoV-2 Spike RBD-hFc; assay: Octet BLI; Fab as analyte over RBD-hFc on AHC sensors; steady-state analysis
SARS-CoV-2 Spike RBD-hFc [8] = molecular target: T1, SARS-CoV-2 Spike RBD-hFc; assay: Octet, Fab as analyte over RBD-hFc on AHC sensor

Row | Binder | Pseudovirus IC50 [1] [µg/mL] | further results
1 | B1 | > 42 | 
2 | B2 | > 42 | 
3 | B3 | 12.6 | 
4 | B4 | 11.2 | 
5 | B5 | > 42 | 
6 | B6 | > 42 | 
7 | B7 | 12.8 | 
8 | B8 | > 42 | 
9 | B9 | 0.84 | 
10 | B10 |  | binding result [2]: binds
11 | B11 | 0.84 | binding result (Wuhan-1): binds
12 | B12 |  | Kd (SARS-CoV-2 Spike RBD-hFc [3]): 9 nM; Kd (SARS-CoV-2 Spike S1-hFc [4]): 6 nM; Kd (SARS-CoV-2 Spike S1-hFc [5]): 14 nM; Kd (SARS-CoV-2 Spike RBD-hFc [6]): 13 nM
13 | B13 | 4.99 | binding result (Wuhan-1): binds
14 | B14 |  | Kd (SARS-CoV-2 Spike RBD-hFc [7]): 163 nM; Kd (SARS-CoV-2 Spike RBD-hFc [8]): 160 nM
15 | B15 | > 42 | 
16 | B16 | 6.26 | 

Reference: patent publication US20230250158A1 (TALEM THERAPEUTICS, published 2023)
